# Results taken from US9816117B2, “Methods, reagents and cells for biosynthesizing compounds” (INVISTA North America S.á r.l., priority 2014, dated 2017).
# B1: SEQ ID NO 6: Segniliparus rotundus carboxylate reductase (Genbank Accession No. ADG98140.1) (protein, listed as Segniliparus rotundus)
# chain: MTQSHTQGPQASAAHSRLARRAAELLATDPQAAATLPDPEVVRQATRPGLRLAERVDAILSGYADRPALGQRSFQTVKDPITGRSSVELLPTFDTITYRELRERATAIASDLAHHPQAPAKPGDFLASIGFISVDYVAIDIAGVFAGLTAVPLQTGATLATLTAITAETAPTLFAASIEHLPTAVDAVLATPSVRRLLVFDYRAGSDEDREAVEAAKRKIADAGSSVLVDVLDEVIARGKSAPKAPLPPATDAGDDSLSLLIYTSGSTGTPKGAMYPERNVAHFWGGVWAAAFDEDAAPPVPAINITFLPLSHVASRLSLMPTLARGGLMHFVAKSDLSTLFEDLKLARPTNLFLVPRVVEMLYQHYQSELDRRGVQDGTREAEAVKDDLRTGLLGGRILTAGFGSAPLSAELAGFIESLLQIHLVDGYGSTEAGPVWRDGYLVKPPVTDYKLIDVPELGYFSTDSPHPRGELAIKTQTILPGYYKRPETTAEVFDEDGFYLTGDVVAQIGPEQFAYVDRRKNVLKLSQGEFVTLAKLEAAYSSSPLVRQLFVYGSSERSYLLAVIVPTPDALKKFGVGEAAKAALGESLQKIARDEGLQSYEVPRDFIIETDPFTVENGLLSDARKSLRPKLKEHYGERLEAMYKELADGQANELRDIRRGVQQRPTLETVRRAAAAMLGASAAEIKPDAHFTDLGGDSLSALTFSNFLHDLFEVDVPVGVIVSAANTLGSVAEHIDAQLAGGRARPTFATVHGKGSTTIKASDLTLDKFIDEQTLEAAKHLPKPADPPRTVLLTGANGWLGRFLALEWLERLAPAGGKLITIVRGKDAAQAKARLDAAYESGDPKLAGHYQDLAATTLEVLAGDFSEPRLGLDEATWNRLADEVDFISHPGALVNHVLPYNQLFGPNVAGVAEIIKLAITTRIKPVTYLSTVAVAAGVEPSALDEDGDIRTVSAERSVDEGYANGYGNSKWGGEVLLREAHDRTGLPVRVFRSDMILAHQKYTGQVNATDQFTRLVQSLLATGLAPKSFYELDAQGNRQRAHYDGIPVDFTAESITTLGGDGLEGYRSYNVFNPHRDGVGLDEFVDWLIEAGHPITRIDDYDQWLSRFETSLRGLPESKRQASVLPLLHAFARPGPAVDGSPFRNTVFRTDVQKAKIGAEHDIPHLGKALVLKYADDIKQLGLL
# B2: SEQ ID NO 4: Segniliparus rugosus carboxylate reductase (Genbank Accession No. EFV11917.1) (protein, listed as Segniliparus rugosus)
# chain: MGDGEERAKRFFQRIGELSATDPQFAAAAPDPAVVEAVSDPSLSFTRYLDTLMRGYAERPALAHRVGAGYETISYGELWARVGAIAAAWQADGLAPGDFVATVGFTSPDYVAVDLAAARSGLVSVPLQAGASLAQLVGILEETEPKVLAASASSLEGAVACALAAPSVQRLVVFDLRGPDASESAADERRGALADAEEQLARAGRAVVVETLADLAARGEALPEAPLFEPAEGEDPLALLIYTSGSTGAPKGAMYSQRLVSQLWGRTPVVPGMPNISLHYMPLSHSYGRAVLAGALSAGGTAHFTANSDLSTLFEDIALARPTFLALVPRVCEMLFQESQRGQDVAELRERVLGGRLLVAVCGSAPLSPEMRAFMEEVLGFPLLDGYGSTEALGVMRNGIIQRPPVIDYKLVDVPELGYRTTDKPYPRGELCIRSTSLISGYYKRPEITAEVFDAQGYYKTGDVMAEIAPDHLVYVDRSKNVLKLSQGEFVAVAKLEAAYGTSPYVKQIFVYGNSERSFLLAVVVPNAEVLGARDQEEAKPLIAASLQKIAKEAGLQSYEVPRDFLIETEPFTTQNGLLSEVGKLLRPKLKARYGEALEARYDEIAHGQADELRALRDGAGQRPVVETVVRAAVAISGSEGAEVGPEANFADLGGDSLSALSLANLLHDVFEVEVPVRIIIGPTASLAGIAKHIEAERAGASAPTAASVHGAGATRIRASELTLEKFLPEDLLAAAKGLPAADQVRTVLLTGANGWLGRFLALEQLERLARSGQDGGKLICLVRGKDAAAARRRIEETLGTDPALAARFAELAEGRLEVVPGDVGEPKFGLDDAAWDRLAEEVDVIVHPAALVNHVLPYHQLFGPNVVGTAEIIRLAITAKRKPVTYLSTVAVAAGVEPSSFEEDGDIRAVVPERPLGDGYANGYGNSKWAGEVLLREAHELVGLPVAVFRSDMILAHTRYTGQLNVPDQFTRLVLSLLATGIAPKSFYQQGAAGERQRAHYDGIPVDFTAEAITTLGAEPSWFDGGAGFRSFDVFNPHHDGVGLDEFVDWLIEAGHPISRIDDHKEWFARFETAVRGLPEAQRQHSLLPLLRAYSFPHPPVDGSVYPTGKFQGAVKAAQVGSDHDVPHLGKALIVKYADDLKALGLL
# How the values were obtained:
# [1] = carboxylate reductase enzyme activity assay (adipate to adipate semialdehyde); assay type: biochemical; settings: purified enzyme enhanced by sfp gene product; 2 mM adipate; room temperature, 20 min; against empty vector control (FIG. 12)
# Method: A sequence encoding a HIS-tag was added to the genes from Segniliparus rugosus and Segniliparus rotundus that encode the carboxylate reductases of SEQ ID NOs: 4 and 6, respectively (see FIG. 9), such that N-terminal HIS tagged carboxylate reductases could be produced. Each of the modified genes was cloned into a pET Duet expression vector along with a sfp gene encoding a HIS-tagged phosphopantetheine transferase from Bacillus subtilis, both under the T7 promoter. Each expression vector was transformed into a BL21[DE3] E. coli host and the resulting recombinant E. coli strains were cultivated at 37° C. in a 250 mL shake flask culture containing 50 mL LB media and antibiotic selection pressure, with shaking at 230 rpm. Each culture was induced overnight at 37° C. using an auto-induction media.
# The pellet from each induced shake flask culture was harvested via centrifugation. Each pellet was resuspended and lysed via sonication, and the cell debris was separated from the supernatant via centrifugation. […]
# Enzyme activity assays (i.e., from adipate to adipate semialdehyde) were performed in triplicate in a buffer composed of a final concentration of 50 mM HEPES buffer (pH=7.5), 2 mM adipate, 10 mM MgCl2, 1 mM ATP and 1 mM NADPH. […] The consumption of NADPH was monitored by absorbance at 340 nm.
# [2] = carboxylate reductase enzyme activity assay (adipate semialdehyde to hexanedial); assay type: biochemical; settings: purified enzyme enhanced by sfp gene product; 2 mM adipate semialdehyde; room temperature, 20 min; against empty vector control (FIG. 15)
# Method: The N-terminal His-tagged carboxylate reductase of SEQ ID NO 6 (see Example 2, Example 3 and FIG. 9) was assayed using adipate semialdehyde as substrate. The enzyme activity assay was performed in triplicate in a buffer composed of a final concentration of 50 mM HEPES buffer (pH=7.5), 2 mM adipate semialdehyde, 10 mM MgCl2, 1 mM ATP and 1 mM NADPH. The enzyme activity assay reaction was initiated by adding purified carboxylate reductase and phosphopantetheine transferase or the empty vector control to the assay buffer containing the adipate semialdehyde and then incubated at room temperature for 20 min. The consumption of NADPH was monitored by absorbance at 340 nm.
molecule,measurement,setting,value
B1,"carboxylate reductase activity: acceptance of adipate as substrate (consumption of NADPH, absorbance at 340 nm)",[1],accepted adipate as substrate
same,"carboxylate reductase activity: acceptance of adipate semialdehyde as substrate (consumption of NADPH, absorbance at 340 nm)",[2],accepted adipate semialdehyde as substrate
B2,"carboxylate reductase activity: acceptance of adipate as substrate (consumption of NADPH, absorbance at 340 nm)",[1],accepted adipate as substrate
